This passage reports Km and kcat results from PMC4336777.

Substrate in the data set: CC(=O)N1c2ccc(O)cc2Oc2cc(O)ccc21
Briefly: purified protein, by the assay type.

Where [1] appears, read: other: Lineweaver-Burk curves in the absence of inhibitor.
The mark [2] stands for this setting: other: initial velocities, plate reader, MPO 23 nM, H2O2 22 μM, error 2 x SD.

B1: Myeloperoxidase (MPO) (Homo sapiens) (protein)
chain 1: not shown
chain 2: VNCETSCVQQPPCFPLKIPPNDPRIKNQADCIPFFRSCPACPGSNITIRNQINALTSFVDASMVYGSEEPLARNLRNMSNQLGLLAVNQRFQDNGRALLPFDNLHDDPCLLTNRSARIPCFLAGDTRSSEMPELTSMHTLLLREHNRLATELKSLNPRWDGERLYQEARKIVGAMVQIITYRDYLPLVLGPTAMRKYLPTYRSYNDSVDPRIANVFTNAFRYGHTLIQPFMFRLDNRYQPMEPNPRVPLSRVFFASWRVVLEGGIDPILRGLMATPAKLNRQNQIAVDEIRERLFEQVMRIGLDLPALNMQRSRDHGLPGYNAWRRFCGLPQPETVGQLGTVLRNLKLARKLMEQYGTPNNIDIWMGGVSEPLKRKGRVGPLLACIIGTQFRKLRDGDRFWWENEGVFSMQQRQALAQISLPRIICDNTGITTVSKNNIFMSNSYPRDFVNCSTLPALNLASWREAS
In general, Km refers to the substrate concentration at which the rate is half of its maximum. By kcat is commonly meant the maximal rate divided by the concentration of active sites. Take B1: under setting [1], the Km turned out to be 28.8 µM and the kcat stood at 207 s⁻¹. Under setting [2], the Km was found to be 31 ± 4 µM and the turnover number (kcat) came out at 186 ± 6 s⁻¹.
